Source: US20060222593A1
“And” between values parts separate entries of the source, which are not always exact repeats. Identical values can stand only once. Like-named read-outs stand apart in the source and are kept apart here. Square brackets hold non-standard residues; d marks the D form. Ends that are not written are not given here.

Key:
[1] = target: T1, ST receptor (rat intestinal membrane) (rat), P23897; assay: radioligand competition binding against [125I]ST1-17 on rat intestinal membrane
T1 chain: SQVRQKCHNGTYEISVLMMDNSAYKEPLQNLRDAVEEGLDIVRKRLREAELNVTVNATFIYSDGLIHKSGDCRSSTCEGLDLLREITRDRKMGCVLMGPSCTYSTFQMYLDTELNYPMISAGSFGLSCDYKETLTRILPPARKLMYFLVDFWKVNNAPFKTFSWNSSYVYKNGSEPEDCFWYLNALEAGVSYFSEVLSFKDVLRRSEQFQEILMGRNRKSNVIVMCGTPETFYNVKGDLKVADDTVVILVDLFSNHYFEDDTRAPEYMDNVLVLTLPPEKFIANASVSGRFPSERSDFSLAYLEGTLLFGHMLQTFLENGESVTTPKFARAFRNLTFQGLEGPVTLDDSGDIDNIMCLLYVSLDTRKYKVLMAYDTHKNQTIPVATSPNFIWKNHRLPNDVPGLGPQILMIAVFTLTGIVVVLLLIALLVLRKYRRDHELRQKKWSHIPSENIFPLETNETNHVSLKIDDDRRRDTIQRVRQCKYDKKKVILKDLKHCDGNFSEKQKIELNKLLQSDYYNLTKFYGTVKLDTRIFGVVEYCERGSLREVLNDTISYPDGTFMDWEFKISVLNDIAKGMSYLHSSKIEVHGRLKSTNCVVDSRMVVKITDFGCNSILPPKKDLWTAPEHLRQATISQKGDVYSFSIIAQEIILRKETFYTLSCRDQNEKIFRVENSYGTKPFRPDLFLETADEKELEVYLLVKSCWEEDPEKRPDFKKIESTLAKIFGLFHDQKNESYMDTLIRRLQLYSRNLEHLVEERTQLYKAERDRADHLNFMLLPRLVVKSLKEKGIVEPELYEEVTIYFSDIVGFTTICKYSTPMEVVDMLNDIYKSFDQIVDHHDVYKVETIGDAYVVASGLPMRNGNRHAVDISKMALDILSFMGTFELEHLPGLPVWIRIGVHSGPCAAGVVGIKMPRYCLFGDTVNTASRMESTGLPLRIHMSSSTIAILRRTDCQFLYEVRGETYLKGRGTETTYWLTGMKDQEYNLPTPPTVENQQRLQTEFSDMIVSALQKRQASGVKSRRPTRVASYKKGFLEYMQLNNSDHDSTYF

[2] = target: T1, ST receptor (rat intestinal membrane) …
[3] = target: T1, ST receptor (rat intestinal membrane) …; assay: radioactive binding assay, labelled compound ca. 0.05 nM on rat intestinal membrane, filtration

Row | Binder | Ki [1] | also measured
1 | GGG[dE][dE][dE]CCELCCNPACAGCY (not fully specified (N-terminus); cysteine pairing not given here) [CA1-(Gly)3-(D-Glu)3-ST5-18] | 1 nM | –
2 | KKKKKKGCCELCCNPACAGCY (modifications not checked) [CA1-(Lys)6-Gly-ST5-18] | 72 nM | –
3 | CCELCCNPACAGCY (modifications not checked) [CA1-ST5-18] | 2.8 nM | Ki [2]: 2.8 nM and 3.5 nM; fold reduction in binding efficacy against the unconjugated ST peptide [1]: 10 fold
4 | CCELCCNPACAGCY (modifications not checked) [CA3-ST5-18] | 0.8 nM | –
5 | CCELCCNPACAGCY (modifications not checked) [ST5-18] | 0.4 nM | –
6 | CCELCCNPACAGCY (modifications not checked) [99mTc-labelled CA1-ST5-18] | – | binding, % of total added [3]: 6%
